± gives the standard deviation of the averaged measurements.
B1: library; a variant is named by its letters at N, in order (parent)
chain: GCUGUCACCGAGAAACUGUGAAGUAUAUCUUAAACCUGGGCACUUAAAAGAUAUAUGGAGUUAGUAGUGCAACCUGCUCGGUCUGAUGAGUCCNNNNNNGGACGAAACAGC

Tests used:
cyclic di-GMP [1] = variants of: B1; experiment: FACS-Seq fitted mean relative fluorescence mCherry/BFP without ligand (log10 relative fluorescence); HEK293T; ligand: cyclic di-GMP (c-di-GMP-II aptamer); higher = higher reporter protein expression; conditions: ligand present: no
In short: (§1)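 Genomic DNA from 6 mCherry/BFP sort bins was PCR-amplified, barcoded and sequenced on MiSeq. The sorted cells were enriched HEK293T libraries, lentivirally transduced with a ribozyme-switch mCherry reporter and an EF1α-BFP marker, incubated with or without ligand for 48 h. Fluorescence derives from a normal fit to the bin counts. The fit was on log10(mCherry/BFP), and means were scaled to five spiked-in control ribozymes.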

cyclic di-GMP [2] = variants of: B1; experiment: normalized RNA/DNA level without ligand (relative to sTRSVctl = 100) (log10 (% of sTRSVctl)); HEK293T; ligand: cyclic di-GMP (c-di-GMP-II aptamer); higher = less ribozyme self-cleavage, higher mRNA level; conditions: reporter: mCherry (pCS4076), ligand present: no
Description: (§2)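 Hammerhead (sTRSV) ribozyme switch libraries with a ligand aptamer grafted on stem I and a randomized N4-6 loop II, cloned into the 3' UTR of mCherry and transiently transfected into HEK293T cells; RNA-Seq 72 h post transfection with ligand added 1 h before transfection; RNA read count / plasmid DNA read count normalized to the non-cleaving sTRSVctl (x100), log10; sequences with >100 DNA reads. FACS-Seq: lentiviral library sorted into 6 bins after 48 h ligand, log-normal fit mean of mCherry/BFP scaled to controls. Printed sequences are partial switch sequences.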

cyclic di-GMP [3] = variants of: B1; experiment: FACS-Seq fitted mean relative fluorescence mCherry/BFP with ligand (log10 relative fluorescence); HEK293T; ligand: cyclic di-GMP (c-di-GMP-II aptamer); ligand concentration (+) FACS-Seq: 1 mM; higher = higher reporter protein expression; conditions: ligand present: yes
In short: as §1

cyclic di-GMP [4] = variants of: B1; experiment: normalized RNA/DNA level with ligand (relative to sTRSVctl = 100) (log10 (% of sTRSVctl)); HEK293T; ligand: cyclic di-GMP (c-di-GMP-II aptamer); ligand concentration (+) RNA-Seq: 1 mM; higher = less ribozyme self-cleavage, higher mRNA level; conditions: reporter: mCherry (pCS4076), ligand present: yes
Description: as §2

Variant | FACS-Seq fitted mean (log10) (cyclic di-GMP [1]) | normalized RNA/DNA level without ligand (log10) (cyclic di-GMP [2]) | FACS-Seq fitted mean (log10) (cyclic di-GMP [3]) | normalized RNA/DNA level with ligand (log10) (cyclic di-GMP [4])
GCUGUCACCGAGAAACUGUGAAGUAUAUCUUAAACCUGGGCACUUAAAAGAUAUAUGGAGUUAGUAGUGCAACCUGCUCGGUCUGAUGAGUCCUAUGAUGGACGAAACAGC [UAUGAU] | -0.525 ± 0.18 | 1.597 ± 0.0092 | -0.0494 ± 0.041 | 1.79 ± 0.12
GCUGUCACCGAGAAACUGUGAAGUAUAUCUUAAACCUGGGCACUUAAAAGAUAUAUGGAGUUAGUAGUGCAACCUGCUCGGUCUGAUGAGUCCUAUGACGGACGAAACAGC [UAUGAC] | -0.234 ± 0.026 | 1.71 ± 0.057 | 0.133 ± 0.1 | 1.87 ± 0.1
GCUGUCACCGAGAAACUGUGAAGUAUAUCUUAAACCUGGGCACUUAAAAGAUAUAUGGAGUUAGUAGUGCAACCUGCUCGGUCUGAUGAGUCCAAUGAGGGACGAAACAGC [AAUGAG] | -0.328 ± 0.065 | 1.54 ± 0.048 | 0.0671 ± 0.032 | 1.71 ± 0.093
GCUGUCACCGAGAAACUGUGAAGUAUAUCUUAAACCUGGGCACUUAAAAGAUAUAUGGAGUUAGUAGUGCAACCUGCUCGGUCUGAUGAGUCCAAUGAUGGACGAAACAGC [AAUGAU] | -0.104 ± 0.17 | 1.581 ± 0.0096 | 0.206 ± 0.048 | 1.76 ± 0.034
GCUGUCACCGAGAAACUGUGAAGUAUAUCUUAAACCUGGGCACUUAAAAGAUAUAUGGAGUUAGUAGUGCAACCUGCUCGGUCUGAUGAGUCCCAUGACGGACGAAACAGC [CAUGAC] | -0.0513 ± 0.12 | 1.63 ± 0.033 | 0.217 ± 0.061 | 1.79 ± 0.13
GCUGUCACCGAGAAACUGUGAAGUAUAUCUUAAACCUGGGCACUUAAAAGAUAUAUGGAGUUAGUAGUGCAACCUGCUCGGUCUGAUGAGUCCGAUGCAGGACGAAACAGC [GAUGCA] | 0.17 ± 0.18 | 1.83 ± 0.066 | 0.358 ± 0.026 | 1.9 ± 0.12
GCUGUCACCGAGAAACUGUGAAGUAUAUCUUAAACCUGGGCACUUAAAAGAUAUAUGGAGUUAGUAGUGCAACCUGCUCGGUCUGAUGAGUCCCAUGGAGGACGAAACAGC [CAUGGA] | -0.378 ± 0.071 | 1.52 ± 0.052 | -0.00583 ± 0.069 | 1.74 ± 0.077

Source: the supplement of paper PMC6757056
